Measured values taken from PMC3770614.

Target: nucleosomes decorated with both H3KC4me3 and H3K9ac or H3K14ac
Assay: pull-down; 130 pmol recombinant nucleosome (biotinylated 601 Widom DNA, weak TATA) on magnetic streptavidin beads, 500 µg HeLa nuclear extract, 2–3 hours at 4°C; 20 mM HEPES pH 7.5, 150 mM NaCl, 0.2 mM EDTA, 20% glycerol, 0.1% NP-40, 1 mM DTT; no competitor DNA; immunoblot of eluted proteins

TFIID complex (from UniProt P21675 1-1893; Q6P1X5 1-1199; Q5VWG9 1-929; O00268 1-1085; Q15542 1-800; P49848 1-677; Q15545 1-349; Q7Z7C8 1-310; Q16594 1-264; Q12962 1-218; Q15544 1-211; Q16514 1-161; Q15543 1-124; P20226 1-339)
fold binding compared to H3KC4me3 alone: 1.2 to 1.4 fold
